Source: US20100099142
Changes are numbered by the printed parent chain. Names and notes keep the numbering of the source.

B1: hexa-His-Xa-Met-AP M206A, Q233A (protein)
chain: MAISIKTPEDIEKMRVAGRLAAEVLEMIEPYVKPGVSTGELDRICNDYIVNEQHAVSACLGYHGYPKSVCISINEVVCHGIPDDAKLLKDGDIVNIDVTVIKDGFHGDTSKMFIVGKPTIMGERLCRITQESLYLALRMVKPGINLREIGAAIQKFVEAEGFSVVREYCGHGIGRGFHEEPQVLHYDSRETNVVLKPGMTFTIEPAVNAGKKEIRTMKDGWTVKTKDRSLSAAYEHTIVVTDNGCEILTLRKDDTIPAIISHDE
B2: Met-AP (M206A) (protein)
chain: B1 chain with A233Q

Target: Met-hIL-21, Q9HBE4
Sequence (Q9HBE4 whole entry, looked up): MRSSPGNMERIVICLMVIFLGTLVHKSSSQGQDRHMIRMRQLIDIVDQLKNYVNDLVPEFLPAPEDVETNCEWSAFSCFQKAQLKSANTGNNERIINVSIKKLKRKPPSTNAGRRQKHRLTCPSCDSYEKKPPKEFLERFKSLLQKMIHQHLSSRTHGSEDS

Row | Protein | Met-free hIL-21 generated (removal of initiator Met, enzyme activity) | cleavage of Met-hIL-21 in 44 h (enzyme activity) | removal of initiator Methionine, assayed by MALDI-TOF
1 | B1 | ˜65% Met-free hIL-21 | In 44 h. more than 90% cleavage of Met-hIL-21 could be observed | removal of Methionine from Met-IL21 below detection limits of Met-IL21 could be performed
2 | B2 | – | – | removal of Methionine from Met-IL21 below detection limits of Met-IL21 could be performed
